According to patent publication US20040072159A1, “Bzip type transcription factors regulating the expression of rice storage protein” (published 2004):

T1: RISBZ1 (Oryza sativa, UniProt Q6ZLB0 SEQ:1-436)
T1 sequence: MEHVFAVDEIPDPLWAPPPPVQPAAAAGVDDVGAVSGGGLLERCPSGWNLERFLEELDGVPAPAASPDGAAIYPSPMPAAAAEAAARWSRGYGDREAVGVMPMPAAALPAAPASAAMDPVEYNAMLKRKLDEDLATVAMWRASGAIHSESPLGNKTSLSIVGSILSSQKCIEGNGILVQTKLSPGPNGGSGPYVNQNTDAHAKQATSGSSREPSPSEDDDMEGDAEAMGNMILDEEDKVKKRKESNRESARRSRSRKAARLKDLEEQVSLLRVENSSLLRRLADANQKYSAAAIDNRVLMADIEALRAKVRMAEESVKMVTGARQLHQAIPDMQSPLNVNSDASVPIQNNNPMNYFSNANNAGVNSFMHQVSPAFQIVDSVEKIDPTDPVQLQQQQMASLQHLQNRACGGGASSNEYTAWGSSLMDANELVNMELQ

T2: Opaque2 (Zea mays, UniProt P12959 P12959:1-453)
T2 sequence: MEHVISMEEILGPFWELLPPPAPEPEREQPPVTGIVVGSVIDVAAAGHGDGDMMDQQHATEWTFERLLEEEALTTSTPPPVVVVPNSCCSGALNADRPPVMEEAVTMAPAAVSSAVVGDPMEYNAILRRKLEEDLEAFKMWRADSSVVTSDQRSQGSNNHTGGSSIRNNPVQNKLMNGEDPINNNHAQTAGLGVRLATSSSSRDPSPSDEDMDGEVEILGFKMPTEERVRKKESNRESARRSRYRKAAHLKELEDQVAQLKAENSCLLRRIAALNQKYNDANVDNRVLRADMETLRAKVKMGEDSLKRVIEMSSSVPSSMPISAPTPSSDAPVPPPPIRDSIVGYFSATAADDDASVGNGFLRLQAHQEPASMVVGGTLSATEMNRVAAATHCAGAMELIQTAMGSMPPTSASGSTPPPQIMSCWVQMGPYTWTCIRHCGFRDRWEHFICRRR


Key:
[1] = molecular target: the molecule itself; assay: gel shift assay of the Examples
RISBZ1 = molecular target: T1, RISBZ1; assay: cell_activity; 1x21-bp reporter; 5x21-bp 127.1-fold
Excerpt: (§1) In addition, reporter plasmids, into which the GUS gene, and one or three repeat(s) of the 12-bp GCN4 motif or one or five repeat(s) of the 21-bp GCN4 motif were inserted, were constructed. For negative control experiments, a reporter plasmid comprising four repeats of a mutant 12-bp GCN4 motif and the GUS reporter gene was used. The mutant 12-bp GCN4 motif has a mutation in the target sequence that is recognized by the RISBZ1 and O2. These plasmid constructs were introduced alone or in combination with other reporter or effector plasmid into rice protoplast cells prepared from its callus culture, and the GUS activity was assayed. When the reporter plasmid or effector plasmid was introduced alone into the protoplast, the GUS activity was detected at a low level. […] Even in the presence of these effector plasmids, the transcriptional activity of the GUS gene downstream of the mutant 12-bp GCN4 motif was the same level as that of background. […] The transcriptional activity of the reporter gene induced by the RISBZ1 gene product was slightly higher than that induced by the O2 gene product. […] 1 to 12 copies of 21-bp GCN motif were assayed, and the transcriptional activity was enhanced proportionately up to 9 copies. […]

Opaque2 = molecular target: T2, Opaque2; assay: cell_activity; 1x21-bp reporter; 5x21-bp 114.7-fold
Excerpt: as §1

| Binder | binding result [1] | activity (RISBZ1) | activity (Opaque2) |
| --- | --- | --- | --- |
| full-length RISBZ1 protein (other, Untagged full-length protein translated in vitro from pET8c (TNT coupled wheat germ extract); the crude extract was used in the gel shift assay; also called rice seed b-Zipper 1) MEHVFAVDEIPDPLWAPPPPVQPAAAAGVDDVGAVSGGGLLERCPSGWNLERFLEELDGVPAPAASPDGAAIYPSPMPAAAAEAAARWSRGYGDREAVGVMPMPAAALPAAPASAAMDPVEYNAMLKRKLDEDLATVAMWRASGAIHSESPLGNKTSLSIVGSILSSQKCIEGNGILVQTKLSPGPNGGSGPYVNQNTDAHAKQATSGSSREPSPSEDDDMEGDAEAMGNMILDEEDKVKKRKESNRESARRSRSRKAARLKDLEEQVSLLRVENSSLLRRLADANQKYSAAAIDNRVLMADIEALRAKVRMAEESVKMVTGARQLHQAIPDMQSPLNVNSDASVPIQNNNPMNYFSNANNAGVNSFMHQVSPAFQIVDSVEKIDPTDPVQLQQQQMASLQHLQNRACGGGASSNEYTAWGSSLMDANELVNMELQ | binds |  |  |
| 21-bp GCN4 reporter (dsDNA) DNA 1: GTTTGTCATGGCTGAGTCATG DNA 2: CATGACTCAGCCATGACAAAC |  | 43.9 fold | 37.9 fold |
